Assay results reported in patent US20220361544A1, “Compositions Containing Brazzein” (The Coca-Cola Company, priority 2019, published 2022).
Like-named read-outs stand apart in the source and are kept apart here.

Tests used:
[1] = cited from earlier work
[2] = Sensory evaluation of 472 ppm RebM80 + Brazzein in citric base; assay type: in vivo, human; settings: Brazzein 1-15 ppm in 472 ppm of RebM80
Text: Example 6: Brazzein+Reb M (Taste Modifying Composition)

[3] = cited from earlier work; remark: listed apart in the source
[4] = Sensory evaluation of 400 ppm A95 + Brazzein in citric base; assay type: in vivo, human; settings: Brazzein 5 ppm to 20 ppm in 400 ppm of A95
Text: Example 7: Brazzein+Reb A95 (Taste Modifying Composition)
“A95” refers to a steviol glycoside blend comprising primarily reb D and reb M. Methods of obtaining A95 are provided in WO 2017/059414, incorporated herein by reference.

[5] = cited from earlier work; remark: listed apart in the source

Brazzein: small, sweet-tasting protein from Pentadiplandra brazzeana Baillon; 53-amino acid minor form, SEQ ID NO: 1 (DKCKKVYENYPVSKCQLANQCNYDCKLDKHARSGECFYDEKRNLQCICDYCEY; listed as Pentadiplandra brazzeana)
Solubility [1]: > 50 mg/mL | Water solubility [1]: > 50 mg/mL | Effect of Brazzein on taste property of 472 ppm RebM80 [2]: improves the taste property in 472 ppm of RebM80 such as, sour, less sweet, cover the bitterness and lingering. More mouthfeel, richness and fullbody. | Sweet taste after incubation ([3]; 80° C. for 4.5 h in the pH range of 2.5-8): remains | Sweet taste after incubation ([3]; 98° C. for 2 h): remains | Effect of Brazzein on taste of 400 ppm A95 [4]: can improve the mouthfeel, block bitterness and lingering in 400 ppm of A95 | Taste similarity to sucrose ([5]; compared with thaumatin): more similar to sucrose than that of thaumatin | Sweetness of minor form relative to major form ([5]; minor form (des-pGlu1-brazzein) vs major form (pGlu-brazzein)): nearly twice the sweetness of the major form
